For test [1], the target named is T1, fibrinogen hole 'a' and hole 'b' (Homo sapiens, UniProt P02675+P02679).
T1 sequence (P02679 27-433 limits assumed): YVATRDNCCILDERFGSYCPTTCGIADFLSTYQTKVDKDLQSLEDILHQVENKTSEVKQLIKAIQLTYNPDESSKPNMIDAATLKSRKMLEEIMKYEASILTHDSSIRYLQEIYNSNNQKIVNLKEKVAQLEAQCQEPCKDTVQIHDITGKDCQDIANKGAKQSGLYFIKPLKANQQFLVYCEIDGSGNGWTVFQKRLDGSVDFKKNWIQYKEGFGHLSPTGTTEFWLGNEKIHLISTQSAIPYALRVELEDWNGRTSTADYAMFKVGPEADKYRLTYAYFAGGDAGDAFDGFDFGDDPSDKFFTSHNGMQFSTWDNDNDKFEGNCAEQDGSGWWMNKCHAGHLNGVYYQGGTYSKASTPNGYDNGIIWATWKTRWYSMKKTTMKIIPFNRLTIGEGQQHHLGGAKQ
T1 sequence (P02675 31-491): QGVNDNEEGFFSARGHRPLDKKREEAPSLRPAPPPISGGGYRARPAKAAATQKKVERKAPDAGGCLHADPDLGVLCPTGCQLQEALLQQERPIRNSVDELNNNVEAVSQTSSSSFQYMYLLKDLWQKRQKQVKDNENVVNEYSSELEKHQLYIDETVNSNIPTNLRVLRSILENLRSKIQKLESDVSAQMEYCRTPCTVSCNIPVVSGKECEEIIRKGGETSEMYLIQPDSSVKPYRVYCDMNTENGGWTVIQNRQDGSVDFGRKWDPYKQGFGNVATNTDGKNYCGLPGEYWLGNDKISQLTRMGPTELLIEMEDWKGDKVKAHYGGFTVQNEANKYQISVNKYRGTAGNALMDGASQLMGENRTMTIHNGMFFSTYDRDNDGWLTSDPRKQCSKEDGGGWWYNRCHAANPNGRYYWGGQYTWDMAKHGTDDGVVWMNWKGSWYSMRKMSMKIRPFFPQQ
T1 sequence (P02671 20-629 partner limits assumed): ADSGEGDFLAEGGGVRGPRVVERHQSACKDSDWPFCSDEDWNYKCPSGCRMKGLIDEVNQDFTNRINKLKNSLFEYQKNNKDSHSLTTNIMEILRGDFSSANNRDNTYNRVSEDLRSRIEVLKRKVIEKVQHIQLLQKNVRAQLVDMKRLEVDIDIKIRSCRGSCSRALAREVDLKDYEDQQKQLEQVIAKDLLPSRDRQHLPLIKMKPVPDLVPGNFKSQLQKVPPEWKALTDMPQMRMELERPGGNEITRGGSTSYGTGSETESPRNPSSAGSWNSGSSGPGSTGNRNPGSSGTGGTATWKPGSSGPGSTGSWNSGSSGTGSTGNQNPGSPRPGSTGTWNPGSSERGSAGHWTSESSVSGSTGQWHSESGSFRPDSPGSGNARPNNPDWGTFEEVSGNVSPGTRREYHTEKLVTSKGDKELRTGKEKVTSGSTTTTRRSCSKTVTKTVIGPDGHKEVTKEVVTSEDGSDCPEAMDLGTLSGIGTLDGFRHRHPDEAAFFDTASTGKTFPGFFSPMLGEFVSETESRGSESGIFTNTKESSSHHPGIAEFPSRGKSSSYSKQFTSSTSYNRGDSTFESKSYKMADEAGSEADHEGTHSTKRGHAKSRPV
The note with it: cited from earlier work.

The target of test [2] is T2, purified human fibrinogen (Homo sapiens, UniProt P02675+P02679).
T2 sequence (P02679 27-433 limits assumed): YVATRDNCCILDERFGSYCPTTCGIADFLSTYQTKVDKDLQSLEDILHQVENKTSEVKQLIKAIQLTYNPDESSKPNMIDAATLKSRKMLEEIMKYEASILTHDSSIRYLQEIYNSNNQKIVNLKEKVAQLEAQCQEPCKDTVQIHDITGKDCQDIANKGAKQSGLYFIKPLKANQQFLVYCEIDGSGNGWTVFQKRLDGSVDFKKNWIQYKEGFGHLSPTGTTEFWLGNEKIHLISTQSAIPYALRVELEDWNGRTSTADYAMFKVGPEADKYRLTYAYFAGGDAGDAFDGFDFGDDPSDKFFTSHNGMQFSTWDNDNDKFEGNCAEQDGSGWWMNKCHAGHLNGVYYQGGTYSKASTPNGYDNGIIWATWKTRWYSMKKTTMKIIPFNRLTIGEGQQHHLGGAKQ
T2 sequence (P02675 31-491): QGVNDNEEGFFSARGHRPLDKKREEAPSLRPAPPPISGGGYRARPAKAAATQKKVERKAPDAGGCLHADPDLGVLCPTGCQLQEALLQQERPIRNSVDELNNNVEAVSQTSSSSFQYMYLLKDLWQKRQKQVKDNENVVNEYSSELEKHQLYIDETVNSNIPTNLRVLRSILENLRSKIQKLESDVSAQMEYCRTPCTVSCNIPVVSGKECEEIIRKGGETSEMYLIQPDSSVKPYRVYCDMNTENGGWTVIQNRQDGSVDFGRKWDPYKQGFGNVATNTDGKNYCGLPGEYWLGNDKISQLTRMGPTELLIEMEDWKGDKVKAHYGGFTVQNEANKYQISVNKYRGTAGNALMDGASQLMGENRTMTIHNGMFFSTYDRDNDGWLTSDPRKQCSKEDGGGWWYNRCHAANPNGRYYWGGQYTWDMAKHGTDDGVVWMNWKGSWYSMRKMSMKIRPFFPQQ
T2 sequence (P02671 20-629 partner limits assumed): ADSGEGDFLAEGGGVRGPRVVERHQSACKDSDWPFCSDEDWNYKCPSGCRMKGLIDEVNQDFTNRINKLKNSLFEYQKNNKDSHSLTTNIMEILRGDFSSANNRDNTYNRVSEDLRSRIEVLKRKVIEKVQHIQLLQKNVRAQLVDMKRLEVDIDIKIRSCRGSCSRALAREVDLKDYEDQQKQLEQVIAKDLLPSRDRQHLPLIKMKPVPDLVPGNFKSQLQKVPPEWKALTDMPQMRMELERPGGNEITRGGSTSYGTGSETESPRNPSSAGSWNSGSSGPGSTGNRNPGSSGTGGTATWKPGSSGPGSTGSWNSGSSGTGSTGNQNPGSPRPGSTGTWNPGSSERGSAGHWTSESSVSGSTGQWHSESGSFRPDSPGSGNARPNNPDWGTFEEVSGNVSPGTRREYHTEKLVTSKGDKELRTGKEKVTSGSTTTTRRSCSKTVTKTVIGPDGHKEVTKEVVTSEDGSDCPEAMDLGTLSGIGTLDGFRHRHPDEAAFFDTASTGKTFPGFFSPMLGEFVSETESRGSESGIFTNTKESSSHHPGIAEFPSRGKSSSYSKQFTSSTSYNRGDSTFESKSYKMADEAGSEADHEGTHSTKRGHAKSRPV
As to the kind of experiment: Polymerisation (clotting) of purified fibrinogen, Sigma Amelung KC4 Delta coagulation analyser. The class given is biochemical. The note with it: conjugate 2 mg/ml, dendrimer 0.025-0.5 mg/ml. The method, then:
The ability of Peptide Dendrimer No. 12 to polymerise fibrinogen was assessed. 30 μl of dendrimer in solution, at concentration ranging from 0.005-2 mg/ml, was added to 100 μl purified human fibrinogen at 3 mg/ml (the level of fibrinogen found in the blood). Polymerisation of fibrinogen was analysed using a Sigma Amelung KC4 Delta coagulation analyser.
The concentration of each dendrimer was varied from 0.005-0.5 mg/ml.

Test [3] deals with human fibrinogen (human) (UniProt P02671). The test can be described thus: cell-based or functional assay.

The values below come from patent publication US20180140739A1, “HAEMOSTATIC DEVICE” (HAEMOSTATIX LIMITED, priority 2015, published 2018).

Ends that are not written are not given here.

For GFIRPY, the “binding preference for hole 'a' / hole 'b' of fibrinogen” value in test [1] is “binds strongly and preferentially to the ‘b’ hole of fibrinogen”. For GPRP, in test [1], the “binding preference for hole 'a' / hole 'b' of fibrinogen” value is “binds strongly and preferentially to the ‘a’ hole of fibrinogen”. On to “Peptide Conjugate No. 1 (peptide 1 GPRP; peptide 2 GPRP; also: peptide conjugate of two chains, linkage not given here)”, for which the “activity of mixtures of peptide conjugate (2 mg/ml) with Peptide Dendrimer No. 3 or 4 in copolymerising with fibrinogen” value in test [2] is on record as “not active”.

B1: Peptide Dendrimer No. 12 (peptide, from a related filing, part only)
peptide: GPRPG
chain: KKKKK
modifications: also: five-arm dendrimer, all arms GPRPG, C-termini attached to branched core
In the case of B1, in test [3], the Clotting activity (seconds), non-irradiated control; extract about 0.25 mg/ml with human fibrinogen 3 mg/ml, 37° C. is 1 s; the Clotting activity (seconds), storage for 2 weeks post irradiation (30 kGy); extract about 0.25 mg/ml with human fibrinogen 3 mg/ml, 37° C. worked out at 1 s; the Clotting activity (seconds), storage for 4 weeks post irradiation (30 kGy); extract about 0.25 mg/ml with human fibrinogen 3 mg/ml, 37° C. was 1 s; the clotting time in human plasma, dendrimer 0.25 mg/ml, 37° C., coagulation analyser was < 1 s.
